Experiments:
[1] = target: T1, CEA (carcinoembryonic antigen) (Homo sapiens, UniProt P06731); assay: CEA-binding assay on CEA-coated plates, bound BLA activity read with nitrocefin; settings: for binding to CEA / affinity in library screening: relative to parent clone
T1 construct: purchased Biodesign Intl., Saco, Me
T1 sequence (P06731 35-676): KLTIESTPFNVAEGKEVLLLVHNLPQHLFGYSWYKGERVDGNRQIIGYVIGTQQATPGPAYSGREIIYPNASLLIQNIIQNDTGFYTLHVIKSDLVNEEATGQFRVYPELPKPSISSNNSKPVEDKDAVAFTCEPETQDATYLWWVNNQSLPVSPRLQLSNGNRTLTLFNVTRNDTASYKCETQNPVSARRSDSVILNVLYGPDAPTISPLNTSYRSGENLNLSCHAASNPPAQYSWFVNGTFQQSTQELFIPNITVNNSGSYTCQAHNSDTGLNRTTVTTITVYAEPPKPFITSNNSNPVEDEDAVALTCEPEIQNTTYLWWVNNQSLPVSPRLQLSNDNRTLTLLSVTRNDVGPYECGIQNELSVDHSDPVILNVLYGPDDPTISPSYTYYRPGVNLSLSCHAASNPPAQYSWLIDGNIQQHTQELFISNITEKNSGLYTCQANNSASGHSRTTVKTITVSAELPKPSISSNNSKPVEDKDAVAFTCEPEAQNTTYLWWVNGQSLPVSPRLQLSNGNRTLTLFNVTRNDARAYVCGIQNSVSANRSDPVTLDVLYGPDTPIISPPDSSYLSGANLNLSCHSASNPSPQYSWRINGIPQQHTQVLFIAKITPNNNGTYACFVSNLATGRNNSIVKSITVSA
Experimental: (§1) Binding to CEA (carcinoembryonic antigen, Biodesign Intl., Saco, Me.) was measured using the following procedure: 96-well plates were coated with 100 ul per well of 5 ug/ml of CEA in 50 mM carbonate buffer pH 9.6 overnight. The plates were washed with PBST and blocked for 1-2 hours with 300 ul of casein (Pierce, Rockford, Ill.). 100 ul of sample from the production plate diluted 100-1000 fold was added to the CEA-coated plate and the plates were incubated for 2 h at room temperature. Subsequently, the plates were washed four times with PBST and 200 ul nitrocefin assay buffer was added, and the BLA activity was measured as described above.
as §1, with “Biodesign Intl., Saco. Me.) was” for “Biodesign Intl., Saco, Me.) was”, “Ill.). 100 n1 of sample” for “Ill.). 100 ul of sample”, “to the CEA coated plate and” for “to the CEA-coated plate and”, “described above. CEA binding was measured in 50 mM phosphate buffer pH 6.5 and in a separate experiment in 50 mM phosphate buffer pH 7.4.” for “described above.”
Winners were confirmed by culturing them in 5 ml of LB medium containing 5 mg/l chloramphenicol and 0.1 mg/l cefotaxime (Sigma) for 2 days at 37 C. Subsequently, the cultures were centrifuged and the pellet was suspended in 375 ul of BPER reagent to release the fusion protein. BLA activity was determined as above. One unit of activity was defined as the amount of BLA that leads to an absorbance increase of one mOD per minute. The samples were diluted based on their total content of BLA activity and the CEA-binding assay was performed as described above but adding various sample dilutions to each well.
In order to compare the target-binding properties of various CAB1 variants, we grew 5 ml cultures of TOP10F′ containing the corresponding expression plasmids, as provided above for 3 days at 25 C in LB medium containing 5 mg/l chloramphenicol. The cultures were centrifuged, and the resulting supernatant was discarded. The cell pellets were resuspended in 500 μL of B-PER reagent. This was incubated for 30 minutes. Lactamase concentration in each sample was determined using nitrocephin as substrate, as provided above.
Binding of the samples to microtiter plates coated with CEA was studied in 50 mM phosphate buffer at pH 6.5 and pH 7.4, as provided above.

host proteases = assay: Screen for improved expression: total BLA activity and CEA-bound BLA activity of CAB1 fusion variants after 3 days of culture (resistance to host proteases); settings: limited randomized library on pSW129.5 template
Experimental: Degradation seems to occur mainly in the scFv portion of the CAB1 fusion protein as the cultures contain significant amounts of free BLA after 3 days, which can be detected by Western blotting, or a nitrocefin (Oxoid, N.Y.) activity assay. Thus we applied a screen to library NA05 that was able to detect variants of CAB1-scFv that would resist degradation by host proteases over 3 days of culture at 37 C.
Library NA05 was plated onto agar plates with LA medium containing 5 mg/l chloramphenicol and 0.1 mg/l cefotaxime (Sigma). 910 colonies were transferred into a total of 10 96-well plates containing 100 ul/well of LA medium containing 5 mg/l chloramphenicol and 0.1 mg/l cefotaxime. […] The production plate was diluted 100-fold in PBST (PBS containing 0.125% Tween-20) and BLA activity was measured by transferring 20 ul diluted lysate into 180 ul of nitrocephin assay buffer (0.1 mg/ml nitrocephin in 50 mM PBS buffer containing 0.125% octylglucopyranoside (Sigma)) and the BLA activity was determined at 490 inn using a Spectramax plus plate reader (Molecular Devices, Sunnyvale, Calif.).
Binding to CEA (carcinoembryonic antigen, Biodesign Intl., Saco, Me.) was measured using the following procedure: 96-well plates were coated with 100 ul per well of 5 ug/ml of CEA in 50 mM carbonate buffer pH 9.6 overnight. […]

LS174T cells = assay: Binding of CAB variants to fixed LS174T cells; design: species or system human
Experimental: In a similar experiment, binding of variants to LS174T cells was measured. LS174T cells were inoculated in 96 well polystyrene plate at 1×10^5 cells/well in a medium containing 70% DMEM, 30% F12, non-essential amino acids, L-Glut, and Sodium Pyruvate (all from Mediatech). The plate was incubated at 37° C. in a humidified CO2 incubator for 20 hours. The cells were then fixed with 4% formaldehyde in PBS (Polysciences, Warrington, Pa.). The plate was washed with PBST, and 1 mg/ml NaBH4 (Sigma) was added into each well to quench any reactive group. Then the plate was washed again with PBST. Binding of CAB molecules was continued the same way as binding to CEA antigen.

| Molecule | binding to CEA ([1]; pH 6.5) | binding to CEA ([1]; pH 7.4) | expression (host proteases) | binding to CEA / affinity in library screening [1] | binding to LS174T cells (LS174T cells; pH 6.5) | saturation levels of binding curves on LS174T cells (LS174T cells; pH 6.5 vs pH 7.4) | binding to LS174T cells (LS174T cells; pH 7.4, compared to CAB1.2) |
| --- | --- | --- | --- | --- | --- | --- | --- |
| CAB1.4 (protein) QVQLQQSGAELVKSGGSVKLSCTASGFNIKDSYMHWVRQGPEQGLEWIGWIDPENGDTEYAPKFQGKATFTTDTSSNTAYLQLSSLTSEDTAVYYCNEGTPTGPYYFDYWGQGTTVTVSSGGGGSGGGGSGGGGSENVLTQSPAIVSASPGEKVTITCSASSSVSYMHWFQQKPGTSPKLVIYDTSNLASGVPARFSGSGSGTSYSLTISRMEAEDAATYYCQQRDSYPLTFGAGTKLELKRAATPVSEKQLAEVVANTITPLMKAQSVPGMAVAVIYQGKPHYYTFGKADIAANKPVTPQTLFELGSISKTFTGVLGGDAIARGEISLDDAVTRYWPQLTGKQWQGIRMLDLATYTAGGLPLQVPDEVTDNASLLRFYQNWQPQWKPGTTRLYANASIGLFGALAVKPSGMPYEQAMTTRVLKPLKLDHTWINVPKAEEAHYAWGYRDGKAVRVSPGMLDAQAYGVKTNVQDMANWVMANMAPENVADASLKQGIALAQSRYWRIGSMYQGLGWEMLNWPVEANTVVETSFGNVALAPLPVAEVNPPAPPVKASWVHKTGSTGGFGSYVAFIPEKQIGIVMLANTSYPNPARVEAAYHILEALQ | significant binding | very weak binding |  |  |  |  |  |
| SW149.5 (protein) QVQLQQSGAELVKSGGSVKLSCTASGFNIKDSYMHWVRQGPEQGLEWIGWIDPENGDTEYAPKFQGKATFTTDTSSNTAYLQLSSLTSEDTAVYYCNEGLPLGAIYNDYWGQGTTVTVSSGGGGSGGGGSGGGGSENVLTQSPAIVSASPGEKVTITCSASSSVSYMHWFQQKPGTSPKLVIYDTSNLASGVPARFSGSGSGTSYSLTISRMEAEDAATYYCQQRDSYPLTFGAGTKLELKRAATPVSEKQLAEVVANTITPLMKAQSVPGMAVAVIYQGKPHYYTFGKADIAANKPVTPQTLFELGSISKTFTGVLGGDAIARGEISLDDAVTRYWPQLTGKQWQGIRMLDLATYTAGGLPLQVPDEVTDNASLLRFYQNWQPQWKPGTTRLYANASIGLFGALAVKPSGMPYEQAMTTRVLKPLKLDHTWINVPKAEEAHYAWGYRDGKAVRVSPGMLDAQAYGVKTNVQDMANWVMANMAPENVADASLKQGIALAQSRYWRIGSMYQGLGWEMLNWPVEANTVVETSFGNVALAPLPVAEVNPPAPPVKASWVHKTGSTGGFGSYVAFIPEKQIGIVMLANTSYPNPARVEAAYHILEALQ |  |  | improved expression | improved expression and affinity |  |  |  |
| CAB1.7: best variant of library SW155 from SW149.5; SEQ ID NO:9 (protein, CAB1.7 protein variant) QVQLQQSGAELVKSGGSVKLSCTASGFNIKDSYMHWVRQGPEQGLEWIGWIDPENGDTEYAPKFQGKATFTTDTSSNTAYLQLSSLTSEDTAVYYCNEGLPLGAIYNDYWGQGTTVTVSSGGGGSGGGGSGGGGSENVLTQSPAIVSASPGEKVTITCSASSAVYAMHWFQQKPGTSPKLVIYDTSNLASGVPARFSGSGSGTSYSLTISRMEAEDAATYYCQQRDSYPLTFGAGTKLELDRAATPVSEKQLAEVVANTITPLMKAQSVPGMAVAVIYQGKPHYYTFGKADIAANKPVTPQTLFELGSISKTFTGVLGGDAIARGEISLDDAVTRYWPQLTGKQWQGIRMLDLATYTAGGLPLQVPDEVTDNASLLRFYQNWQPQWKPGTTRLYANASIGLFGALAVKPSGMPYEQAMTTRVLKPLKLDHTWINVPKAEEAHYAWGYRDGKAVRVSPGMLDAQAYGVKTNVQDMANWVMANMAPENVADASLKQGIALAQSRYWRIGSMYQGLGWEMLNWPVEANTVVETSFGNVALAPLPVAEVNPPAPPVKASWVHKTGSTGGFGSYVAFIPEKQIGIVMLANTSYPNPARVEAAYHILEALQ |  |  |  | significantly improved binding to CEA | closely resembles the binding curve of CAB1.2 | pH-dependent | significantly weaker binding |

— patent US20110160440A1, “Cab Molecules” (GENENCOR INTERNATIONAL, INC., priority 2003, published 2011)
